Assay results as given in paper PMC7036284 (Chemical research in toxicology, 2019).
Changes are numbered by the printed parent chain.

B1: wild-type Tsa1 (recombinant, 6X-His tagged) (enzyme, S. cerevisiae)
chain: MVAQVQKQAPTFKKTAVVDGVFDEVSLDKYKGKYVVLAFIPLAFTFVCPTEIIAFSEAAKKFEEQGAQVLFASTDSEYSLLAWTNIPRKEGGLGPINIPLLADTNHSLSRDYGVLIEEEGVALRGLFIIDPKGVIRHITINDLPVGRNVDEALRLVEAFQWTDKNGTVLPCNWTPGAATIKPTVEDSKEYFEAANK
B2: F^44A Tsa1 (recombinant, 6X-His tagged) (enzyme, S. cerevisiae)
chain: B1 chain with F44A
B3: FYL Tsa1 (F^44L,Y^78L; recombinant, 6X-His tagged) (enzyme, S. cerevisiae)
chain: B1 chain with F44L, Y78L
B4: Y^78L Tsa1 (recombinant, 6X-His tagged) (enzyme, S. cerevisiae)
chain: B1 chain with Y78L
B5: FYA Tsa1 (F^44A,Y^78A; recombinant, 6X-His tagged) (enzyme, S. cerevisiae)
chain: B1 chain with F44A, Y78A
B6: Y^78A Tsa1 (recombinant, 6X-His tagged) (enzyme, S. cerevisiae)
chain: B1 chain with Y78A
B7: F^44L Tsa1 (recombinant, 6X-His tagged) (enzyme, S. cerevisiae)
chain: B1 chain with F44L

Target: the molecule itself
Experiment: native gel or EMSA

Protein	stoichiometry N
B1	10
B2	2

Target: the molecule itself
Experiment: SEC-MALS

Protein	stoichiometry N
B3	2
B4	2
B5	2
B6	2
B7	2
